Measured values from patent US20220289796A1.
“And” between values parts separate entries of the source, which are not always exact repeats. Identical values can stand only once. Like-named read-outs stand apart in the source and are kept apart here.

Legend:
[1] = biological target: DENV2 sE Cm2, displayed on EXPI293F cells (Dengue virus 2 strain 16681); assay: flow cytometry, EXPI293F surface display, RT (~23 C)
[2] = biological target: DENV2 sE IntFc8, displayed on EXPI293F cells (Dengue virus 2 strain 16681); assay: as above
[3] = biological target: DENV2 sE PM2, displayed on EXPI293F cells (Dengue virus 2 strain 16681); assay: as above
[4] = biological target: DENV2 sE HCat3, displayed on EXPI293F cells (Dengue virus 2 strain 16681); assay: as above
[5] = biological target: DENV2 sE Mnmer1, displayed on EXPI293F cells (Dengue virus 2 strain 16681); assay: as above
[6] = biological target: DENV2 sE UndPk6, displayed on EXPI293F cells (Dengue virus 2 strain 16681); assay: as above
[7] = biological target: DENV2 sE Mnmer2, displayed on EXPI293F cells (Dengue virus 2 strain 16681); assay: as above
[8] = biological target: DENV2 sE SHP2, displayed on EXPI293F cells (Dengue virus 2 strain 16681); assay: as above
[9] = biological target: DENV2 sE WT, displayed on EXPI293F cells (Dengue virus 2 strain 16681); assay: as above
[10] = biological target: DENV2 sE PM4, displayed on EXPI293F cells (Dengue virus 2 strain 16681); assay: as above
[11] = biological target: DENV2 sE IntFc6, displayed on EXPI293F cells (Dengue virus 2 strain 16681); assay: as above
[12] = biological target: DENV2 sE SHP1, displayed on EXPI293F cells (Dengue virus 2 strain 16681); assay: as above
[13] = biological target: DENV2 sE IntFc2, displayed on EXPI293F cells (Dengue virus 2 strain 16681); assay: as above
[14] = biological target: DENV2 sE Cm1, displayed on EXPI293F cells (Dengue virus 2 strain 16681); assay: as above
[15] = biological target: DENV2 sE Cm2, displayed on EXPI293F cells (Dengue virus 2 strain 16681); assay: flow cytometry, EXPI293F surface display, 40 C
[16] = biological target: DENV2 sE IntFc8, displayed on EXPI293F cells (Dengue virus 2 strain 16681); assay: flow cytometry, EXPI293F surface display, 40 C
[17] = biological target: DENV2 sE PM2, displayed on EXPI293F cells (Dengue virus 2 strain 16681); assay: flow cytometry, EXPI293F surface display, 40 C
[18] = biological target: DENV2 sE HCat3, displayed on EXPI293F cells (Dengue virus 2 strain 16681); assay: flow cytometry, EXPI293F surface display, 40 C
[19] = biological target: DENV2 sE Mnmer1, displayed on EXPI293F cells (Dengue virus 2 strain 16681); assay: flow cytometry, EXPI293F surface display, 40 C
[20] = biological target: DENV2 sE UndPk6, displayed on EXPI293F cells (Dengue virus 2 strain 16681); assay: flow cytometry, EXPI293F surface display, 40 C
[21] = biological target: DENV2 sE Mnmer2, displayed on EXPI293F cells (Dengue virus 2 strain 16681); assay: flow cytometry, EXPI293F surface display, 40 C
[22] = biological target: DENV2 sE SHP2, displayed on EXPI293F cells (Dengue virus 2 strain 16681); assay: flow cytometry, EXPI293F surface display, 40 C
[23] = biological target: DENV2 sE WT, displayed on EXPI293F cells (Dengue virus 2 strain 16681); assay: flow cytometry, EXPI293F surface display, 40 C
[24] = biological target: DENV2 sE PM4, displayed on EXPI293F cells (Dengue virus 2 strain 16681); assay: flow cytometry, EXPI293F surface display, 40 C
[25] = biological target: DENV2 sE IntFc6, displayed on EXPI293F cells (Dengue virus 2 strain 16681); assay: flow cytometry, EXPI293F surface display, 40 C
[26] = biological target: DENV2 sE SHP1, displayed on EXPI293F cells (Dengue virus 2 strain 16681); assay: flow cytometry, EXPI293F surface display, 40 C
[27] = biological target: DENV2 sE IntFc2, displayed on EXPI293F cells (Dengue virus 2 strain 16681); assay: flow cytometry, EXPI293F surface display, 40 C
[28] = biological target: DENV2 sE Cm1, displayed on EXPI293F cells (Dengue virus 2 strain 16681); assay: flow cytometry, EXPI293F surface display, 40 C
[29] = nanoDSF melting, homodimer dissociation, 4.0 µM
[30] = biological target: DENV2 sE IntFc8, displayed on EXPI293F cells (Dengue virus 2 strain 16681); assay: flow cytometry, displayed sE, 40 C
[31] = biological target: DENV2 sE PM2, displayed on EXPI293F cells (Dengue virus 2 strain 16681); assay: flow cytometry, displayed sE, 40 C
[32] = biological target: DENV2 sE HCat3, displayed on EXPI293F cells (Dengue virus 2 strain 16681); assay: flow cytometry, displayed sE, 40 C
[33] = biological target: DENV2 sE UndPk6, displayed on EXPI293F cells (Dengue virus 2 strain 16681); assay: flow cytometry, displayed sE, 40 C
[34] = biological target: DENV2 sE SHP2, displayed on EXPI293F cells (Dengue virus 2 strain 16681); assay: flow cytometry, displayed sE, 40 C
[35] = biological target: DENV2 sE PM4, displayed on EXPI293F cells (Dengue virus 2 strain 16681); assay: flow cytometry, displayed sE, 40 C
[36] = biological target: DENV2 sE SHP1, displayed on EXPI293F cells (Dengue virus 2 strain 16681); assay: flow cytometry, displayed sE, 40 C
[37] = biological target: DENV2 sE IntFc2, displayed on EXPI293F cells (Dengue virus 2 strain 16681); assay: flow cytometry, displayed sE, 40 C
[38] = biological target: DENV2 sE WT (Dengue virus 2 strain 16681) (UniProt P29990); assay: nanoDSF Van't Hoff, homodimer, 37 C; parameters: TΔS°bind: unit not given here

Substance	Fluorescence Ratio (Fr, Var/WT) [1]	Fluorescence Ratio (Fr, Var/WT) [2]	Fluorescence Ratio (Fr, Var/WT) [3]	Fluorescence Ratio (Fr, Var/WT) [4]	Fluorescence Ratio (Fr, Var/WT) [5]	Fluorescence Ratio (Fr, Var/WT) [6]	Fluorescence Ratio (Fr, Var/WT) [7]	Fluorescence Ratio (Fr, Var/WT) [8]	Fluorescence Ratio (Fr, Var/WT) [9]	Fluorescence Ratio (Fr, Var/WT) [10]	Fluorescence Ratio (Fr, Var/WT) [11]	Fluorescence Ratio (Fr, Var/WT) [12]	Fluorescence Ratio (Fr, Var/WT) [13]	Fluorescence Ratio (Fr, Var/WT) [14]	Fluorescence Ratio (Fr, Var/WT) [15]	Fluorescence Ratio (Fr, Var/WT) [16]	Fluorescence Ratio (Fr, Var/WT) [17]	Fluorescence Ratio (Fr, Var/WT) [18]	Fluorescence Ratio (Fr, Var/WT) [19]	Fluorescence Ratio (Fr, Var/WT) [20]	further results
1C19 (antibody)	0.6	2	1.7	1.5	0.2	2.4	0.8	1.2	1	2.1	0.8	1.3	1.4	0.9	1.6	3.5	2.5	2.5	0	2.9	Fluorescence Ratio (Fr, Var/WT) [21]: 0.8; Fluorescence Ratio (Fr, Var/WT) [22]: 1.9; Fluorescence Ratio (Fr, Var/WT) [23]: 1; Fluorescence Ratio (Fr, Var/WT) [24]: 3.1; Fluorescence Ratio (Fr, Var/WT) [25]: 0; Fluorescence Ratio (Fr, Var/WT) [26]: 1.8; Fluorescence Ratio (Fr, Var/WT) [27]: 2.5; Fluorescence Ratio (Fr, Var/WT) [28]: 3.2
DENV3 sE WT																					Tm^1 (Dimer Dissociation) [29]: < 15 ° C.; ΔTm^1 (Var-WT) [29]: 0 ° C.
DENV2 sE WT																					Tm^1 (Dimer Dissociation): 35.9 ° C. and 34.2 ° C. and 32.1 ° C.
EDE1 C10 (antibody)															3.8	5.9	3.7	3	0	4.1	Fr (geometric mean fluorescence intensity ratio, variant/WT) [30]: > 2 fold; Fr (geometric mean fluorescence intensity ratio, variant/WT) [31]: > 2 fold; Fr (geometric mean fluorescence intensity ratio, variant/WT) [32]: > 2 fold; Fr (geometric mean fluorescence intensity ratio, variant/WT) [33]: > 2 fold; Fr (geometric mean fluorescence intensity ratio, variant/WT) [34]: > 2 fold; Fr (geometric mean fluorescence intensity ratio, variant/WT) [35]: > 2 fold; Fr (geometric mean fluorescence intensity ratio, variant/WT) [36]: > 2 fold; Fr (geometric mean fluorescence intensity ratio, variant/WT) [37]: > 2 fold; Fluorescence Ratio (Fr, Var/WT) [21]: 0.1; Fluorescence Ratio (Fr, Var/WT) [22]: 3.8; Fluorescence Ratio (Fr, Var/WT) [23]: 1; Fluorescence Ratio (Fr, Var/WT) [25]: 0; Fluorescence Ratio (Fr, Var/WT) [26]: 5.6; Fluorescence Ratio (Fr, Var/WT) [27]: 3.4
DENV2 sE WT (from UniProt P29990 281-677)																					Kd [38]: 13 µM; TΔS°bind [38]: -67.1; ΔG°bind [38]: -6.9 kcal/mol; ΔH°bind [38]: -74.1 kcal/mol
2D22 (antibody)	1.9	2.5	2.5	1.6	0.5	2.7	2.8	2.4	1	3	1	3	1.3	0.8	4.4	4.4	2.8	2.8	0	4.9	Fr (geometric mean fluorescence intensity ratio, variant/WT) [30]: > 2 fold; Fr (geometric mean fluorescence intensity ratio, variant/WT) [31]: > 2 fold; Fr (geometric mean fluorescence intensity ratio, variant/WT) [32]: > 2 fold; Fr (geometric mean fluorescence intensity ratio, variant/WT) [33]: > 2 fold; Fr (geometric mean fluorescence intensity ratio, variant/WT) [34]: > 2 fold; Fr (geometric mean fluorescence intensity ratio, variant/WT) [35]: > 2 fold; Fr (geometric mean fluorescence intensity ratio, variant/WT) [36]: > 2 fold; Fr (geometric mean fluorescence intensity ratio, variant/WT) [37]: > 2 fold; Fluorescence Ratio (Fr, Var/WT) [21]: 0.8; Fluorescence Ratio (Fr, Var/WT) [22]: 3.1; Fluorescence Ratio (Fr, Var/WT) [23]: 1; Fluorescence Ratio (Fr, Var/WT) [25]: 0; Fluorescence Ratio (Fr, Var/WT) [26]: 4.4; Fluorescence Ratio (Fr, Var/WT) [27]: 2.5; Fluorescence Ratio (Fr, Var/WT) [28]: 1.6
EDE1 C8 (antibody)	1.7	3.3	2.4	1.9	0.7	2.3	2.7	2.3	1	3.2	1.3	2.9	1.3	0.9							
3H5 (antibody)	0.4	0.5	0.7	0.7	0.3	0.8	0.8	0.6	1	0.8	0.6	0.7	0.8	0.5	0.6	0.4	0.5	0.6	0	0.4	Fluorescence Ratio (Fr, Var/WT) [21]: 0.8; Fluorescence Ratio (Fr, Var/WT) [22]: 0.5; Fluorescence Ratio (Fr, Var/WT) [23]: 1; Fluorescence Ratio (Fr, Var/WT) [24]: 0.4; Fluorescence Ratio (Fr, Var/WT) [25]: 0; Fluorescence Ratio (Fr, Var/WT) [26]: 0.5; Fluorescence Ratio (Fr, Var/WT) [27]: 0.6; Fluorescence Ratio (Fr, Var/WT) [28]: 0.6
